Data from IntAct's records for PubMed 16767699.

B1: Septin-11 (Homo sapiens), Q9NVA2 (parent)
chain: MAVAVGRPSNEELRNLSLSGHVGFDSLPDQLVNKSTSQGFCFNILCVGETGIGKSTLMDTLFNTKFESDPATHNEPGVRLKARSYELQESNVRLKLTIVDTVGFGDQINKDDSYKPIVEYIDAQFEAYLQEELKIKRSLFNYHDTRIHACLYFIAPTGHSLKSLDLVTMKKLDSKVNIIPIIAKADTIAKNELHKFKSKIMSELVSNGVQIYQFPTDEETVAEINATMSVHLPFAVVGSTEEVKIGNKMAKARQYPWGVVQVENENHCDFVKLREMLIRVNMEDLREQTHTRHYELYRRCKLEEMGFKDTDPDSKPFSLQETYEAKRNEFLGELQKKEEEMRQMFVMRVKEKEAELKEAEKELHEKFDLLKRTHQEEKKKVEDKKKELEEEVNNFQKKKAAAQLLQSQAQQSGAQQTKKDKDKKNASFT
partner: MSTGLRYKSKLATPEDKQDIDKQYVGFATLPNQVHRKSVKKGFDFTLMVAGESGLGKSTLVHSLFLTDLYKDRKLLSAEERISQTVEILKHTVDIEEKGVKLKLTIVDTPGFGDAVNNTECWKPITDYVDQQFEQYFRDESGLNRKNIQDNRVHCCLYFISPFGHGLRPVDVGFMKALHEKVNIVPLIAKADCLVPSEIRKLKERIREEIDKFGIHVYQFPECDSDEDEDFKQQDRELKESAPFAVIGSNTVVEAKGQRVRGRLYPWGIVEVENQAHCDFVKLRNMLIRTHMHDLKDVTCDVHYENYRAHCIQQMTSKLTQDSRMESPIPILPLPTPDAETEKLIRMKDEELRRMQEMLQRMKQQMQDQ

Variants of: B1
Settings: with sept5_human SEPTIN5, Q99719

effect of a mutation on the interaction | Variant
disrupting interaction | S55N
